This passage reports specific activity results from patent publication US4959351A, “Crystal suspensions of insulin derivatives, processes for their preparation and their use” (Hoescht Aktiengesellschaft, priority 1983, dated 1990).

A short description of the data set: Specific biological activity of the insulin substance used (I.U./mg). The note with it: as stated in the composition.

Substance “Porcine insulin--Arg^B31 --Arg^B32 --OH [Insulin-Arg^B31 -Arg^B32 -OH from pigs]” gave a specific activity of 27.0 I.U./mg.
The substance human insulin--Arg^B31 --Arg^B32 --OH yielded a specific activity of 27.0 I.U./mg.
The substance “human insulin--Arg^B31 --OH [Human insulin-Arg^B31 -OH]” had a specific activity of 27.5 I.U./mg.
In turn, “human insulin--Arg^B31 -Lys--^B32 --OCH3 [Human insulin-Arg^B31 -Lys^B31 -OCH3]” yielded a specific activity of 27.0 I.U./mg.
Regarding “human insulin-B30-choline ester [human insulin-(B30)-choline ester]”, the specific activity is 28.0 I.U./mg.
